Measured values published in patent US20240247072A1 (KEYMED BIOSCIENCES, published 2024).

T1: human CD70, full length, on CHO cells (CHO-human CD70-B07) (human, UniProt P32970 1-193)
T1 construct: whole, on cells; Stably transfected CHO cells; also called CHO-CD70
T1 sequence (looked up): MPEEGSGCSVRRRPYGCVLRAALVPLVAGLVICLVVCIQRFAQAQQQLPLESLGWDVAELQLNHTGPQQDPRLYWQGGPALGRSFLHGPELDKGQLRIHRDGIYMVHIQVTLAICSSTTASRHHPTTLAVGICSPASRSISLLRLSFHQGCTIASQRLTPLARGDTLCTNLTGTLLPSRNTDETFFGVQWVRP

T2: recombinant trimeric protein of human CD70 extracellular region (human CD70 mIgG Fc (knob) / mouse IgG Fc … (human, UniProt P01863 98-330 = IgG part))
T2 construct: The ELISA and Octet texts say only 'recombinant CD70 protein' / 'CM352 antigen'; also called recombinant human CD70 protein; recombinant CD70 protein
T2 chain 1: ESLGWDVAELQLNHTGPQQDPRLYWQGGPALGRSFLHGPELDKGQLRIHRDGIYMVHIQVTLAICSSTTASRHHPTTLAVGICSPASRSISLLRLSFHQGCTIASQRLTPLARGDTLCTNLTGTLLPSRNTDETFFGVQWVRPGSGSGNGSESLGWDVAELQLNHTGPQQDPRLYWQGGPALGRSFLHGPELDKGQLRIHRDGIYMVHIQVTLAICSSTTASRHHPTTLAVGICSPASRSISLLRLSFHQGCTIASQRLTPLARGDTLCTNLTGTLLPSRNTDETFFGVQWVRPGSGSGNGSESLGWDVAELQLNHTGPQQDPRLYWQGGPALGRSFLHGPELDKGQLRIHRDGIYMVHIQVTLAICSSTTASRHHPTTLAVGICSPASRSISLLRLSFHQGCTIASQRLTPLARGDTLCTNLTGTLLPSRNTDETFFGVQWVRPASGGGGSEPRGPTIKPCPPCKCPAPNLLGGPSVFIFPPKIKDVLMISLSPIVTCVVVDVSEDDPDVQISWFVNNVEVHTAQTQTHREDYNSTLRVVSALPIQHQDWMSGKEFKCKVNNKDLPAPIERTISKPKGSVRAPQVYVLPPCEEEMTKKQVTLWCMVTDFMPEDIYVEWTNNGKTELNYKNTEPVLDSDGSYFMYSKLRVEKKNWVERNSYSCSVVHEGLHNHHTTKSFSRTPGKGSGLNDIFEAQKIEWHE
T2 chain 2: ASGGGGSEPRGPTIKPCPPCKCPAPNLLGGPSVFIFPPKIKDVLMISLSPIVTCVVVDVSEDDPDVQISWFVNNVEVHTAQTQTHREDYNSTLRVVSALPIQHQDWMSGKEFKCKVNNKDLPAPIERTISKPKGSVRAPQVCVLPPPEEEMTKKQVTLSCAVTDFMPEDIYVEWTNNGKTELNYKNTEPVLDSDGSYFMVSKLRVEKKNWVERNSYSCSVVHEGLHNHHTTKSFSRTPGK


What was measured:
[1] = biological target: T1, human CD70, full length, on CHO cells …; assay: flow cytometry, Fab on CHO-human CD70 cells
Protocol: The blank control cell CHO and stably-transfected cell line CHO-CD70 were prepared and added at 5×10⁴ cells/well into a 96-well plate respectively. 50 μL of Fab antibodies with different dilution gradients were added into each well and incubated at 4° C. for 60 minutes. The centrifuge was performed to discard the supernatant. The plate was washed with 0.5% BSA/PBS and added with 50 μL of a secondary antibody solution (Anti-human IgG F (ab′) 2-AF647, Jackson Immuno Research) and incubated at 4° C. for 45 minutes. The excess secondary antibody was washed off with 0.5% BSA. The PBS solution was added to resuspend cells for flow cytometry. The data was collected.

[2] = biological target: T2, recombinant trimeric protein of human …; assay: competition ELISA, Fab titrated, human CD27 coated, biotin-CD70
Protocol: The next day, the plate was washed 3 times with PBS, added with 200 μL of 2% defatted dry milk/PBS, blocked at room temperature for 2 hours, and washed once with PBS, 50 μL of different dilution gradients of Fab antibodies were added and incubated at room temperature for 30 minutes. […] The plate was washed 3 times with PBST and PBS and dried by spinning. A secondary antibody solution Streptavidin-coupled horseradish peroxidase SA-HRP (BD bioscience, Cat. No: 6222697) was diluted with 0.5% BSA in a ratio of 1:8000. 100 μl of the diluent was added into each well and incubate at room temperature for 30 minutes. The plate was washed 3 times with PBST and PBS and dried by spinning. 100 μl of the color development solution (TMB solution, Sigma, Cat. No: T2885) was added into each well and protected from light at 37° C. for reaction. After the substrate developed moderately, 50 μl of 2M concentrated sulfuric acid solution was added into each well to terminate the reaction. The OD450 nm was determined by using an enzyme-linked detector within 30 minutes, and the data was collected.

[3] = biological target: T2, recombinant trimeric protein of human …; assay: BLI (Octet), biotin antigen on SA probe, Fab in solution
[4] = biological target: T1, human CD70, full length, on CHO cells …; assay: flow cytometry, chimeric IgG on CHO-human CD70 cells
Protocol: Different cells in logarithmic growth phase were taken, blocked with 3% BSA for 30 minutes, and plated to a 96-well U-plate at 5×10⁴ cells/100 μL. The centrifuge was performed at 1100 rpm for 3 minutes. The supernatant was discarded and the cells were gently tapped to be loosening. 50 μL of gradient diluted antibody was added (antibody concentration: from 30 μg/mL, 3-fold dilution for 5 gradients) per well, and incubated at 4° C. for 1 hour. After incubation, 180 μL of 0.5% BSA was added to each well for washing 3 times. 30 μL/well of secondary antibody AlexaFluro647 anti-human IgG (Jackson Immuno Research, Cat. No: 109-606-170) was added and incubated at 4° C. for 45 minutes. At the end of the incubation, each well was washed 3 times with 180 μL of 0.5% BSA and finally resuspended in 50 μL of PBS for iQue (Intellicyt, USA) assay.

[5] = biological target: T2, recombinant trimeric protein of human …; assay: competition ELISA, chimeric IgG titrated, CD27 coated, biotin-CD70, human pair
Protocol: The recombinant CD27 protein was coated at 1 μg/mL in a 96-well microtiter plate and incubated overnight at 4° C. The next day, the plate was washed 3 times with PBS, added with 200 μL of 2% defatted dry milk/PBS, blocked at room temperature for 2 hours, and washed once with PBS. The purified chimeric antibody was divided to 12 concentration gradients starting at 100 nM and diluted in a 1:3 gradient. […] of the antibody was added per well and incubated at room temperature for 30 minutes. […] The plate was washed 3 times with PBST and PBS and dried by spinning. A secondary antibody Streptavidin-coupled horseradish peroxidase SA-HRP (BD bioscience, cat. No: 6222697) was diluted with 0.5% BSA in a ratio of 1:8000. 100 μL of the diluent was added into each well and incubated at room temperature for 30 minutes. The plate was washed 3 times with PBST and PBS and dried by spinning. 100 μl of color development solution (TMB solution, Sigma, Cat. No: T2885) was added into each well and protected from light at 37° C. for reaction. After the substrate developed moderately, 50 μl of H₂SO₄ was added into each well to terminate the reaction. The OD450 nm was determined by using an enzyme-linked detector within 30 minutes, and the data was collected. The results were calculated by using Graph Pad Prism 5 software.

| Binder | EC50 [1] [nM] | IC50 [2] [nM] | koff [3] [s⁻¹] | EC50 [4] [nM] | IC50 [5] [nM] |
| --- | --- | --- | --- | --- | --- |
| 2B12 Fab antibody (Fab, V domains shown, Purified Fab from the mouse Fab phage display library) VH: QVQLQQSGPGLVQPSQSLSITCTVSGFSLTTYAVHWVRQSPGKGLEWLGVIWSTGITDYNAAFISRLSISKDNSKSQVFFKMNSLQSDDIAIYYCARNPYYGNLNAMDYWGQGTSVTVSS VL: DIVLTQSPASLAVSLGQRATISCRASKSVDTSGYSFMHWYQQKPGQPPKLLIYLASNLESGVPARFSGSGSGTDFTLNIHPVEEEDAATYYCQHSRELPLTFGAGTKLELK | 8.6 | 0.29 | 0.000125 |  |  |
| 14C12 Fab antibody (Fab, V domains shown, Purified Fab from the mouse Fab phage display library) VH: EVQLQQSGPELVKPGASVKMSCKASGYTFTDYVIHWVKQKPGQGLEWIGYLHPYNDDTKYNEKFKGKATLTSDKSSSTAYMELSSLTSEDSAVYYCARRGYYDYAWFADWGQGTLVTVSA VL: DIVLTQSPASLAVSLGQRATISCRASKSVSASGYTWIHWYQQKPRQAPKLLIYLASNLESGVPARFSGSGSGTDFTLNIHPVEEEDAATYYCQHSRELPPTFGGGTKLEIK | 28 | 0.79 | 0.000321 |  |  |
| 12A1 Fab antibody (Fab, V domains shown, Purified Fab from the mouse Fab phage display library) VH: QVQLQQSGPGLVQPSQSLSITCTVSGFSLTTYAVHWVRQSPGKGLEWLGVIWSTGITDYNAAFISRLSISKDNSKSQVFFKMDSLQSDDTAIYFCARNPHYGNLNAMDYWGQGTSVTVSS VL: DIVLTQSPASLAVSLGQRATISCRASKSVSASGYTWMHWYQQKPGQAPKLLIYLASNLESGVPARFSGSGSGTDFTLNIHPVEEEDAATYYCQHSRELPPTFGGGTKLEIK | 17.7 | 1.88 | 0.000317 |  |  |
| 23A11 chimeric antibody (antibody, V domains shown) VH: QVQLQQSGPGLVQPSQSLSITCTVSGFSLTTYAVHWVRQSPGKGLEWLGVIWSVGSTDYNAAFISRLSISKDNSKSQVFFKMNSLQADDTAIYYCARNIYYGNVYAMDYWGQGTSVTVSS VL: DIVLTQSPASLAVSLGQRATISCRASKSVDASGYSFMHWYQQKAGQPPKLLIYLASNLESGVPARFSGRGSGTDFTLNIHPVEEGDAATYYCQHSRELPLTFGAGTKLEIK |  |  |  | 11.9 | 0.07 |
| 27A3 Fab antibody (Fab, V domains shown, Purified Fab from the mouse Fab phage display library) VH: EVQLQESGPGLVQPSQSLSITCTVSGFSLTTYAVHWVRQSPGKGLEWLGVIWSTGITDYNADFISRLSISKDNSKSQVFFKMDSLQSDDTAIYFCARNHYYGNLNAMDYWGQGTSVTVSS VL: DIVLTQSPASLAVSLGQRATISCRASKSVSTSGYSFMHWYQQKPGQPPKLLIYLASNLESGVPARFSGSGSGTDFTLNIHPVEEEDAATYYCQHSRELPYTFGGGTKLEIK | 12.4 | 0.51 | 0.000172 |  |  |
| 12A1 chimeric antibody (antibody, V domains shown) VH: QVQLQQSGPGLVQPSQSLSITCTVSGFSLTTYAVHWVRQSPGKGLEWLGVIWSTGITDYNAAFISRLSISKDNSKSQVFFKMDSLQSDDTAIYFCARNPHYGNLNAMDYWGQGTSVTVSS VL: DIVLTQSPASLAVSLGQRATISCRASKSVSASGYTWMHWYQQKPGQAPKLLIYLASNLESGVPARFSGSGSGTDFTLNIHPVEEEDAATYYCQHSRELPPTFGGGTKLEIK |  |  |  | 7.55 | 0.12 |
| 32D1 Fab antibody (Fab, V domains shown, Purified Fab from the mouse Fab phage display library) VH: EVQLQQSGPELVKPGASLKMSCKASGYTFTDYVIHWVKQKPGQGLEWIGYLHPYNDDTKYNEKFKGKATLTSDKSSSTAYMELNSLTSEDSAVYYCARRGYYDYAWFADWGQGTLVTVSA VL: DIVLTQSPASLAVSLGQRATISCKASKSVSASGYTWMHWYQQKPGQAPKLLIYLASNLESGVPARFSGSGSGTDFTLNIHPVEEEDAATYYCQHSRELPPTFGGGTKLEIK | 8.1 | 2.26 | 0.00183 |  |  |
| 23A11 Fab antibody (Fab, V domains shown, Purified Fab from the mouse Fab phage display library) VH: QVQLQQSGPGLVQPSQSLSITCTVSGFSLTTYAVHWVRQSPGKGLEWLGVIWSVGSTDYNAAFISRLSISKDNSKSQVFFKMNSLQADDTAIYYCARNIYYGNVYAMDYWGQGTSVTVSS VL: DIVLTQSPASLAVSLGQRATISCRASKSVDASGYSFMHWYQQKAGQPPKLLIYLASNLESGVPARFSGRGSGTDFTLNIHPVEEGDAATYYCQHSRELPLTFGAGTKLEIK | 15.6 | 0.5 | 0.000403 |  |  |
| 3B2 Fab antibody (Fab, V domains shown, Purified Fab from the mouse Fab phage display library) VH: EVQLKQSGPGLVQPSQSLSITCTVSGFSLTTYGVHWVRQSPGKGLEWLGVIWSTGITDYNAAFISRLSISKDNSKSQVFFKMNSLQADDTAIYYCARNSYYGNLYVMDYWGQGTSVTVSS VL: DIVLTQSPASLAVSLGQRATISCRASKSVSASGYNFMHWYQQKPGQPPKLLIYLASNLESGVPARFSGSGSGTDFTLNIHPVEEEDAATYYCQHSRELPLTFGAGTKLELK | 14.2 | 0.32 | 0.000325 |  |  |
